Where “and” joins values, the source holds several entries; their conditions need not be identical. Equal values may be shown once.
Key:
hPHGDH [1] = biological target: T1, hPHGDH (Homo sapiens, UniProt O43175); assay: hPHGDH reverse reaction kinetics (decrease in NADH fluorescence at 450 nm); details: for kcat: per monomer
T1 sequence (O43175 1-533): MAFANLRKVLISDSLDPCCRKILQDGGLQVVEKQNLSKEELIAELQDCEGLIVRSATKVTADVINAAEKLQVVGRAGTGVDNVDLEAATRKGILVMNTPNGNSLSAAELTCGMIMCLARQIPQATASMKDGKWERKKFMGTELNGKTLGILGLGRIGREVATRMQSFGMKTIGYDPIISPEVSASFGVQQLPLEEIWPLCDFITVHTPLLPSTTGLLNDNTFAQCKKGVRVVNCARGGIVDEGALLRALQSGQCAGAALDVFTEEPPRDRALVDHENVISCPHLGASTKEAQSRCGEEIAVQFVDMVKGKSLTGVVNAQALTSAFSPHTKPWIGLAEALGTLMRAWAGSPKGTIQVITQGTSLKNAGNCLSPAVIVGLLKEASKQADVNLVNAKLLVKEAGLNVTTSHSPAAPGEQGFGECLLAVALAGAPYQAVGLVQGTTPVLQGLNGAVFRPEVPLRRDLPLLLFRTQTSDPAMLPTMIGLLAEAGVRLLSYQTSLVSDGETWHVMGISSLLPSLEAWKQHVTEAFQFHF
From the text: The latter assay was used to determine the apparent kinetic parameters on alternative substrates.

truncated hPHGDH form = biological target: truncated hPHGDH form; design: method as in PMID 29262655; details: isothermal calorimetry; cited from earlier work
hPHGDH [2] = biological target: T1, hPHGDH; assay: Ligand binding by quenching of protein fluorescence at 330 nm
Procedure: Protein fluorescence spectra were measured at 0.06–0.1 mg/mL protein concentration in 10 mM potassium phosphate, pH 7.0, 15 °C; spectra were recorded using a Jasco FP-750 instrument and were corrected for the buffer contribution. Protein fluorescence spectra were recorded between 300 and 450 nm, with excitation at 280 and 298 nm.
All recorded spectra were subtracted for the contribution of the ligand (added to the buffer only) and were corrected for dilution at every addition. […] In all cases, Kd values were determined by fitting the data to a hyperbolic function.

hPHGDH [3] = biological target: T1, hPHGDH; assay: Temperature-ramp unfolding (melting temperature) with cofactors; format: binding; design: His-tagged full-length hPHGDH was expressed in BL21(DE3) E. coli cells; made in house; host or cells: E. coli BL21(DE3)
Procedure: Temperature-ramp experiments were performed in 10 mM potassium phosphate, pH 7.0. For this, a software-driven, Peltier-equipped fluorimeter was used to measure the protein fluorescence change at 330 nm or a CD spectropolarimeter to follow the CD signal at 280 nm in order to reproduce a temperature gradient (0.5 °C/min) [31].

M. tuberculosis PHGDH = details: reverse reaction; cited from earlier work
E. coli PHGDH = details: reverse reaction; cited from earlier work
hPHGDH [4] = biological target: T1, hPHGDH; assay: Effect of salts, phosphate and serine synthesis metabolites on hPHGDH activity (hydrazine assay); format: biochemical; design: His-tagged full-length hPHGDH was expressed in BL21(DE3) E. coli cells; made in house; host or cells: E. coli BL21(DE3); details: up to 50 mM final concentration
From the text: The effects of KCl, NaCl, MgCl2 and CaCl2 and of pH and temperature on enzyme activity and stability were investigated using the hydrazine assay. […] The dependence of activity on pH was fitted using an equation for three pKa values, according to [44], providing apparent values unrelated to microscopic ones.

[5] = Maximal solubility of inhibitor stock; format: physicochemical; details: dissolved in DMSO
hPHGDH [6] = biological target: T1, hPHGDH; assay: Inhibition of hPHGDH activity by inhibitors (hydrazine assay); format: biochemical; design: His-tagged full-length hPHGDH was expressed in BL21(DE3) E. coli cells; made in house; host or cells: E. coli BL21(DE3); details: kinetics on 3PG at increasing inhibitor concentration
[7] = substrate: NC(=O)c1ccc[n+]([C@@H]2O[C@H](COP(=O)(O)OP(=O)(O)OC[C@H]3O[C@@H](n4cnc5c(N)ncnc54)[C@H](O)[C@@H]3O)[C@@H](O)[C@H]2O)c1; assay: purified protein, by the assay type; format: biochemical, human; details: 2.5 mM 3PG, pH 7.0; for Km: other: NAD+ varied, Figure S3C
Procedure: (§1) PSAT was added to drive the reaction and to avoid product inhibition of hPHGDH.

[8] = substrate: O=C(O)CC(O)C(=O)O; assay: purified protein, by the assay type; format: biochemical, human; details: hydrazine assay, pH 7.0
Procedure: as §1

[9] = substrate: CC(O)CC(=O)O; assay: purified protein, by the assay type; details: hydrazine assay, pH 7.0
[10] = substrate: C[C@@H](O)C(=O)O; assay: purified protein, by the assay type; details: other: forward reaction, substrate varied, 1.5 mM NAD^+, hydrazine assay, 37 °C, pH 7.0, per monomer
[11] = substrate: NC(=O)C1=CN([C@@H]2O[C@H](COP(=O)(O)OP(=O)(O)OC[C@H]3O[C@@H](n4cnc5c(N)ncnc54)[C@H](O)[C@@H]3O)[C@@H](O)[C@H]2O)C=CC1; assay: purified protein, by the assay type; details: other: reverse reaction, NADH varied, 0.5 mM PHP, 37 °C, pH 7.0
[12] = substrate: O=C(O)C(=O)COP(=O)(O)O; assay: purified protein, by the assay type; details: pH 7.0
[13] = substrate: O=C(O)C(O)C(O)C(=O)O; assay: purified protein, by the assay type; details: other: forward reaction, substrate varied, 1.5 mM NAD^+, hydrazine assay, 37 °C, pH 7.0
[14] = substrate: O=C(O)C(O)COP(=O)(O)O; assay: purified protein, by the assay type; details: pH 7.0
[15] = substrate: O=C(O)CC(=O)C(=O)O; assay: purified protein, by the assay type; details: other: reverse reaction, substrate varied, 5 mM NADH, 37 °C, pH 7.0
[16] = biological target: the molecule itself; assay: SEC; Superdex 200 Increase column, potassium phosphate pH 7.0 (20 mM with 0.15 M NaCl); major peak approx. 240 kDa; monomers to tetramer
[17] = biological target: the molecule itself; assay: SEC; Superdex 200 Increase column, increasing potassium phosphate pH 7.0 (100, 250, 500 mM; 0.15 M NaCl added at 100 mM); minor peak ~480 kDa confirmed by anti-His Western blot; tetramers to octamer
[18] = reverse reaction, NADH varied, 0.5 mM PHP, 37 °C, pH 7.0
[19] = other: forward reaction, substrate varied, […] NAD^+, 37 °C
[20] = other: forward reaction, substrate varied, 1.5 mM NAD^+, 37 °C
[21] = other: reverse reaction (discussion value)
[22] = other: reverse reaction, substrate varied, 150 µM NADH, 37 °C
[23] = other: reverse reaction, substrate varied, 5 mM NADH, 37 °C
[24] = other: forward reaction, substrate varied, 120 µM NAD^+, PSAT-coupled (1) and hydrazine (2) assays, 37 °C
[25] = other: forward reaction, substrate varied, 1.5 mM NAD^+, hydrazine assay, 37 °C

Molecule: NC(=O)C1=CN([C@@H]2O[C@H](COP(=O)(O)OP(=O)(O)OC[C@H]3O[C@@H](n4cnc5c(N)ncnc54)[C@H](O)[C@@H]3O)[C@@H](O)[C@H]2O)C=CC1 [NADH]
- Km (hPHGDH [1]; [18]): 560 µM
- kcat (hPHGDH [1]; [18]): 3.4 s⁻¹
- maximal rate of Michaelis–Menten fit (hPHGDH [1]; reverse reaction, NADH varied, 0.5 mM PHP, Figure S4B): 3.3684
- Kd (truncated hPHGDH form): 0.2 µM
- Kd (hPHGDH [2]; Kd (NAD^+; main phase of NADH binding), discussion value): ~130 µM
- Kd (hPHGDH [2]; Kd, first phase, free enzyme, 15 °C): 0.49 ± 0.03 µM
- Kd (hPHGDH [2]; Kd, second phase, free enzyme, 15 °C): 168 µM and 169 µM
- amplitude of protein fluorescence quenching, first phase (hPHGDH [2]; free enzyme): ~35%
- amplitude of protein fluorescence quenching, second phase (hPHGDH [2]; free enzyme): 65%
- Tm, circular dichroism signal at 280 nm (hPHGDH [3]; 120 µM NAD^+ or 100 µM NADH, protein alone 47.5): 51.0 °C
- Tm, CD (220 nm) (hPHGDH [3]; +120 μM NAD^+ or +100 μM NADH, hPHGDH alone 47.2 ± 0.5): 51.0 ± 0.3 °C
- Tm, Fluorescence (330 nm) (hPHGDH [3]; +120 μM NAD^+ or +100 μM NADH, hPHGDH alone 48.4 ± 2.1): 55.7 °C and 55.7 ± 0.1 °C

Molecule: O=C(O)C(=O)COP(=O)(O)O [PHP, 3-phosphohydroxypyruvate]
- Ki (hPHGDH [1]; Ki (substrate inhibition), reverse reaction, 150 µM NADH, 37 °C, pH 7.0): 2230 µM
- Ki (hPHGDH [1]; Ki (substrate inhibition), reverse reaction, 5 mM NADH, 37 °C, pH 7.0): 1260 µM
- Ki (hPHGDH [1]; Ki of fit with substrate inhibition, reverse reaction, 150 µM NADH, Figure S4A): 2230 µM
- Ki (hPHGDH [1]; Ki of fit with substrate inhibition, reverse reaction, 5 mM NADH, Figure S4A,C,D): 1260 µM
- kinetic efficiency kcat/Km ratio, reverse reaction vs forward reaction on 3PG (hPHGDH [1]; higher than for the forward reaction on 3PG): 20 fold
- maximal rate of fit with substrate inhibition (hPHGDH [1]; reverse reaction, 150 µM NADH, Figure S4A): 1.2871
- maximal rate of fit with substrate inhibition (hPHGDH [1]; reverse reaction, 5 mM NADH, Figure S4A,C,D): 2.282
- kcat (hPHGDH [1]; reverse reaction, substrate varied, 150 µM NADH, 37 °C, pH 7.0): 1.3 s⁻¹
- Km (M. tuberculosis PHGDH): 85 µM
- Km (E. coli PHGDH): 40 µM
- effect on hPHGDH activity on […] 3PG (hPHGDH [4]): not affected

Molecule: CBR-5884
- maximal solubility [5]: ≤ 1000 µM
- mechanism of inhibition (hPHGDH [6]): noncompetitive inhibition mechanism

B1: recombinant human D-3-phosphoglycerate dehydrogenase, His-tagged, full length (enzyme, UniProt O43175 1-533, looked up)
chain: MAFANLRKVLISDSLDPCCRKILQDGGLQVVEKQNLSKEELIAELQDCEGLIVRSATKVTADVINAAEKLQVVGRAGTGVDNVDLEAATRKGILVMNTPNGNSLSAAELTCGMIMCLARQIPQATASMKDGKWERKKFMGTELNGKTLGILGLGRIGREVATRMQSFGMKTIGYDPIISPEVSASFGVQQLPLEEIWPLCDFITVHTPLLPSTTGLLNDNTFAQCKKGVRVVNCARGGIVDEGALLRALQSGQCAGAALDVFTEEPPRDRALVDHENVISCPHLGASTKEAQSRCGEEIAVQFVDMVKGKSLTGVVNAQALTSAFSPHTKPWIGLAEALGTLMRAWAGSPKGTIQVITQGTSLKNAGNCLSPAVIVGLLKEASKQADVNLVNAKLLVKEAGLNVTTSHSPAAPGEQGFGECLLAVALAGAPYQAVGLVQGTTPVLQGLNGAVFRPEVPLRRDLPLLLFRTQTSDPAMLPTMIGLLAEAGVRLLSYQTSLVSDGETWHVMGISSLLPSLEAWKQHVTEAFQFHF
notes: D-3-phosphoglycerate dehydrogenase, human, 533 amino acids; synthetic gene back-translated from GenBank CAG33076.1, codon-optimised for E. coli, cloned in pETM11 (NcoI/XhoI); The N-terminal 6xHis tag of pETM11 can be cut by TEV protease, but no cleavage is reported; the tagged monomer has a theoretical mass of 59.776 kDa and was detected with an anti-His antibody in the SEC peaks; Tetramer in …
- Km ([7]; PSAT-coupled assay): 133 µM
- Km ([7]; hydrazine assay): 162 µM
- kcat/Km ([7]; other: forward reaction, NAD^+ varied, assays 1,2, 37 °C): 15100 M⁻¹ s⁻¹
- Km [8, 19]: 4480 ± 870 µM
- kcat [8, 19]: 0.44 ± 0.01 s⁻¹
- kcat/Km [8, 19]: 98 M⁻¹ s⁻¹
- Km ([8]; other: substrate varied, […] NAD+, Figure S3B,D-F): 4480 µM
- Km [9, 20]: 41000 ± 19000 µM
- kcat [9, 20]: 2.53 s⁻¹
- kcat/Km [9, 20]: 61 M⁻¹ s⁻¹
- Km ([9]; other: substrate varied, 1.5 mM NAD+, Figure S3B,D-F, 37.0 °C): 41800 µM
- kcat [10]: 5.41 s⁻¹
- kcat/Km [10]: 36 M⁻¹ s⁻¹
- Km [11]: 559 ± 75 µM
- kcat [11]: 3.37 s⁻¹
- kcat/Km [11]: 6000 M⁻¹ s⁻¹
- Km [12, 21]: 10 µM
- kcat [12, 21]: 2.28 ± 0.14 s⁻¹
- kcat/Km [12, 21]: 228000 M⁻¹ s⁻¹
- Km ([12]; other: reverse reaction, 150 µM NADH, Figure S4A): 14.1 µM
- Km ([12]; other: reverse reaction, 5 mM NADH, Figure S4A,C,D): 10.2 µM
- Km [12, 22]: 0.014 ± 0.003 [Ki = 2.23 ± 0.37] mM
- kcat [12, 22]: 1.29 ± 0.09 s⁻¹
- kcat/Km [12, 22]: 91100 M⁻¹ s⁻¹
- Km [12, 23]: 0.010 ± 0.003 [Ki = 1.26 ± 0.25] mM
- kcat [12, 23]: 2.28 ± 0.14 s⁻¹
- kcat/Km [12, 23]: 228000 M⁻¹ s⁻¹
- Km [13]: 5550 ± 2730 µM
- kcat [13]: 0.41 s⁻¹
- kcat/Km [13]: 74 M⁻¹ s⁻¹
- Km ([14]; other: 3PG varied, 120 µM NAD+, PSAT-coupled assay, Figure S3A, 37.0 °C): 252 µM
- Km ([14]; other: 3PG varied, 120 µM NAD+, hydrazine assay, Figure S3A, 37.0 °C): 317 µM
- Km [14, 24]: 255 ± 59 µM
- kcat [14, 24]: 1.48 s⁻¹
- kcat/Km [14, 24]: 5800 M⁻¹ s⁻¹
- Km [14, 25]: 360 ± 61 µM
- kcat [14, 25]: 2.97 s⁻¹
- kcat/Km [14, 25]: 8250 M⁻¹ s⁻¹
- Km ([14]; other: substrate varied, 1.5 mM NAD+, hydrazine assay, Figure S3B,D-F, 37.0 °C): 359 µM
- Km [15]: 0.90 ± 0.42 [Ki = 152 ± 56] mM
- kcat [15]: 1.76 ± 0.20 s⁻¹
- kcat/Km [15]: 1960 M⁻¹ s⁻¹
- stoichiometry N [16]: 4
- stoichiometry N [17]: 8

From PMC8073719, “Biochemical and Biophysical Characterization of Recombinant Human 3-Phosphoglycerate Dehydrogenase” (International Journal of Molecular Sciences, 2021)
